For this test, the target named is 3HA-MCHR1 (melanin-concentrating hormone receptor 1) (mouse) (UniProt Q8JZL2).
Sequence of UniProt Q8JZL2 (Q8JZL2 whole entry): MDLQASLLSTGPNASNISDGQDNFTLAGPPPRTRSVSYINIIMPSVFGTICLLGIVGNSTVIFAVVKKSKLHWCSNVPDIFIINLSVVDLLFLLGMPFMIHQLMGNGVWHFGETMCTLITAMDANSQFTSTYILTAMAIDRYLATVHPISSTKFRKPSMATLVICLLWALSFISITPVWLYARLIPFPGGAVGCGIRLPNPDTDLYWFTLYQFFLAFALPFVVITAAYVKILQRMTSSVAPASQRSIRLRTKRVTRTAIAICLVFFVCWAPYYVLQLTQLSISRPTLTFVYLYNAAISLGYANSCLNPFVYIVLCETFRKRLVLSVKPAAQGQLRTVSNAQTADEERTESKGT

Take DFDMLRCMLGRVYRPCWQV [Melanin concentrating hormone (MCH)]: the LogEC50 of MCH (10^-11 to 10^-6 M), NFAT-luciferase Ca2+ reporter in HEK293T cells with MCHR1 alone is -8.15 log M; the LogEC50 of MCH, NFAT-luciferase Ca2+ reporter in HEK293T cells with MCHR1 and MRAP2 WT co-transfected (1:9) is -7.06 log M; the LogEC50 of MCH, NFAT-luciferase Ca2+ reporter in HEK293T cells with MCHR1 and MRAP2 t97 co-transfected (1:9) was -7.34 log M; the LogEC50 of MCH, NFAT-luciferase Ca2+ reporter in HEK293T cells with MCHR1 and MRAP2 t118 co-transfected (1:9) was -7.59 log M. The same molecule showed a LogEC50 of MCH, NFAT-luciferase Ca2+ reporter in HEK293T cells with MCHR1 and MRAP2 t143 co-transfected (1:9) of -7.6 log M; a LogEC50 of MCH, NFAT-luciferase Ca2+ reporter in HEK293T cells with MCHR1 and MRAP2 Δ4–11 co-transfected (1:9) of -7.24 log M; a LogEC50 of MCH, NFAT-luciferase Ca2+ reporter in HEK293T cells with MCHR1 and MRAP2 Δ12–25 co-transfected (1:9) of -6.76 log M; a LogEC50 of MCH, NFAT-luciferase Ca2+ reporter in HEK293T cells with MCHR1 and MRAP2 Δ26–35 co-transfected (1:9) of -7.55 log M. In addition, the LogEC50 of MCH, NFAT-luciferase Ca2+ reporter in HEK293T cells with MCHR1 and MRAP2 Δ36–45 co-transfected (1:9) was -6.64 log M; the LogEC50 of MCH, NFAT-luciferase Ca2+ reporter in HEK293T cells with MCHR1 and MRAP2 Δct co-transfected (1:9) is -7.51 log M.

The values are drawn from PMC8931191.
